To fix the notation:
B1: Parabutoporin (Parabuthus schlechteri), P83312 (parent)
chain: FKLGSFLKKAWKSKLAKKLRAKGKEMLKDYAKGLLEGGSEEVPGQ

Variants of B1 are the subject of the assay. The conditions noted are these: with kpca_human PRKCA.
Turning to FKLGAFLKKAWKAKLAKKLRAKGKEMLKDYAKGLLEGGSEEVPGQ [S5A;S13A], the “effect of a mutation on the interaction” value is reported as “disrupting interaction”.
